Laboratory results: US20040005550A1, “Methods and compositions useful for targeting activated vitronectin receptor alphavbeta3” (The Scripps Research Institute, priority 1998, published 2004)

Key:
[1] = molecular target: T1, αvβ3 expressed in CHO cells (Homo sapiens, UniProt P05106+P06756); assay: Flow cytometry ligand binding to αvβ3-CHO cells; settings: for Bmax: arbitrary fluorescence units
T1 construct: cDNAs encoding full-length human αv and β3 were subcloned into pcDNA3 and pCDM8; expressed in transfected cells
T1 sequence (P06756 31-889 limits assumed): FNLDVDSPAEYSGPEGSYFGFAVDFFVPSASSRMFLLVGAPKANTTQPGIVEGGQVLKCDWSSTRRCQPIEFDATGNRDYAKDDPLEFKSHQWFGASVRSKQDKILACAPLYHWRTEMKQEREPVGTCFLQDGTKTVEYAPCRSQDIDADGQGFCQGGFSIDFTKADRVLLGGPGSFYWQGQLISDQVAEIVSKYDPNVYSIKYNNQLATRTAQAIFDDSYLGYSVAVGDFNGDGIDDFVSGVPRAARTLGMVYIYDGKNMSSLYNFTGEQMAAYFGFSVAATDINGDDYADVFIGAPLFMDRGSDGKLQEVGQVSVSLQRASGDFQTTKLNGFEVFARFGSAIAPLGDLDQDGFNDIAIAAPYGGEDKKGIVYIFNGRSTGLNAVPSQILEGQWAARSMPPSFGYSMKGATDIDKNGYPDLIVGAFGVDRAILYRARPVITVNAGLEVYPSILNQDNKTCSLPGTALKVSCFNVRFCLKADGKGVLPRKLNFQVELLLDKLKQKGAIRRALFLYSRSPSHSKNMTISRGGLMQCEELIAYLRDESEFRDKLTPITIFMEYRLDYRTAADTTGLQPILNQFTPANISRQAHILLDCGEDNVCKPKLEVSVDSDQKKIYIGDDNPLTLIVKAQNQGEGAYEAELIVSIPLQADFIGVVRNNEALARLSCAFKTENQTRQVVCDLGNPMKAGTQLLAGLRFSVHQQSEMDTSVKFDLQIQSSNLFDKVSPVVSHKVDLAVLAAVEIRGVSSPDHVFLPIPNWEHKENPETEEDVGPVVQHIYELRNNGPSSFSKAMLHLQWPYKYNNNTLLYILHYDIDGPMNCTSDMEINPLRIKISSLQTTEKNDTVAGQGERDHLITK
T1 sequence (P06756 891-1048 partner limits assumed): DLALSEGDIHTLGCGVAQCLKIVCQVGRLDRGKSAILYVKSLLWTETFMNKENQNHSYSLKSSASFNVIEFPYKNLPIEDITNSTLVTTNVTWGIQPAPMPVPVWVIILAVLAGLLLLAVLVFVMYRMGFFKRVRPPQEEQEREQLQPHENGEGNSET
T1 sequence (P05106 27-788): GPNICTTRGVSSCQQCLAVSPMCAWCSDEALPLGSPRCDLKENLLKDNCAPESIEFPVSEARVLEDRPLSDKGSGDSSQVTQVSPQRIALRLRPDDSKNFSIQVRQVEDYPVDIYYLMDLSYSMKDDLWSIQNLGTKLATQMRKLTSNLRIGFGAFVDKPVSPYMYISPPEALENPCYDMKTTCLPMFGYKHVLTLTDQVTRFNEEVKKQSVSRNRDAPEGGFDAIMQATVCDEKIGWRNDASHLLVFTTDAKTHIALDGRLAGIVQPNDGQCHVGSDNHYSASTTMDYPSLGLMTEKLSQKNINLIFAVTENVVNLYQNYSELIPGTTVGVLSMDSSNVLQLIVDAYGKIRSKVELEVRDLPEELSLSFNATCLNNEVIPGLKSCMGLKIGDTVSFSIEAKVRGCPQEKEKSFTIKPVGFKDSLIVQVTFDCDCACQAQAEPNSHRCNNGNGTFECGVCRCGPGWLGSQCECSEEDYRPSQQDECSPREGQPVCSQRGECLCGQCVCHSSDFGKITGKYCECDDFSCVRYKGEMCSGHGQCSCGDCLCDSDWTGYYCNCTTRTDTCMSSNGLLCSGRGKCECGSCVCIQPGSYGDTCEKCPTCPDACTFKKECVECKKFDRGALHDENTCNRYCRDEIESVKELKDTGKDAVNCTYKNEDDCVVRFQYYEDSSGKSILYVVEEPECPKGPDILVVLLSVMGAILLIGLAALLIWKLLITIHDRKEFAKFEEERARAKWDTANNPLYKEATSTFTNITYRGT
Protocol: Binding of aPB, WOW-1 Fab and FITC-fibrinogen to cells was assessed by flow cytometry. Typically, cells were cultured overnight in low serum medium (e.g., 0.5% fetal bovine serum), resuspended in incubation buffer at 1-1.5×10^7 cells/ml, and 4-6×10^5 cells were incubated with one of these ligands for 30 min at room temperature in a final volume of 50 μl. […] In some experiments, ligand binding and αvβ3 expression were measured simultaneously by incubation of cells with ligands in the presence of biotin-SSA6 (7 μg/ml), a non-function-blocking anti-β3 monoclonal antibody (Abrams, C., Deng, J., Steiner, B., and Shattil, S. J. (1994) J. Biol. Chem. 269, 18781-18788). After 30 min at room temperature, cells were washed and incubated with phycoerythrin-streptavidin (1:25 final dilution; Molecular Probes) for 20 min on ice. In the case of WOW-1 Fab, an Alexa-conjugated anti-(His)6 monoclonal antibody (Accurate Chemical and Scientific Corp., Westbury, N.Y.) was added at this stage (50 μg/ml). Cells were washed and resuspended in 0.5 ml incubation buffer containing 2 μg/ml propidium iodide (Sigma, St. Louis, Mo.). Ligand binding (FL1 channel) was analyzed immediately on the gated subset of live cells (propidium iodide-negative, FL3) that was strongly positive for αvβ3 expression (FL2). Binding isotherms were subjected to non-linear, least squares regression analysis using an equation for one-site binding (Prism 2.0 software; GraphPad Software, San Diego, Calif.). Two-tailed P values for paired samples were obtained by Student's t test.
In order to document and study the significance of affinity modulation of αvβ3, a monovalent reporter ligand was developed analogous to the activation-dependent anti-αIIbβ3 antibody, PAC1 Fab. Preliminary binding studies were conducted with the new antibody, designated WOW-1 Fab, using purified integrins in the presence of 50 μM MnCl2, which activates integrins by a direct effect on the extracellular domain (Bazzoni, G., and Hemler, M. E. (1998) Trends Biochem. Sci. 23, 30-34). […] To determine if WOW-1 Fab reacted preferentially with activated αvβ3 in cells, Fab binding was compared with that of multivalent penton base using CHO cells stably-transfected with human αvβ3 (αvβ3-CHO cells).

[2] = test system: αvβ3-CHO cells; assay: Cell adhesion assay on immobilized penton base; type: cell-based
Protocol: Immulon-2 microtiter wells (Dynex Laboratories, Chantilly, Va.) were coated with unlabeled penton base (1-100 ng/well) overnight at 4° C., followed by blocking with 20 mg/ml BSA. CHO cells stably expressing αvβ3 were labeled with BCECF-AM (Molecular Probes, Eugene, Oreg.), and cell adhesion to the immobilized penton base was quantitated by cytofluorimetry at 485/530 nm (Hato, T., Pampori, N., and Shattil, S. J. (1998) J. Cell Biol. 141(7), 1685-1695).
In order to determine whether changes in receptor affinity affect the adhesive function of αvβ3, the adhesion of αvβ3-CHO cells to immobilized penton base was quantitated. Adhesion was dependent on the coating concentration of penton base and was half-maximal at 30-40 ng/well (FIG. 7). Activation of αvβ3 by AP5 led to a 7-fold leftward shift in the dose-response curve such that half-maximal adhesion now occurred at approximately 5 ng of penton base/well. Treatment of the cells with 1 mM MnCl2 caused an even further shift in the dose-response curve, either because it induced a more profound effect on αvβ3 or it activated additional αv integrins (FIG. 7). […] Thus, affinity modulation of αvβ3 promotes both cell adhesion and post-ligand binding responses, such as cell spreading.

[3] = test system: resting or thrombin-stimulated human platelets; assay: Flow cytometry ligand binding to platelets

Substance	Bmax ([1]; Activating antibody AP5) [units]	Bmax ([1]; No Treatment) [units]	affinity/avidity of αvβ3 for ligand, fold lower than that for aPB ([1]; unstimulated αvβ3-CHO cells)	coating concentration at half-maximal adhesion ([2]; no additive, 90 min at 37° C.)	coating amount at half-maximal adhesion ([2]; αvβ3 activated by AP5)	aPB binding on a per receptor basis (mfi of aPB binding divided by mfi of SSA6 binding) ([1]; AP5-treated αvβ3-CHO cells, 75 nM aPB)	binding to platelets [3]
Fibrinogen: Purified human fibrinogen labeled with FITC	77 ± 6	126 ± 74	approximately 15 fold				
Penton Base: Recombinant multivalent penton base coat protein from adenovirus type 2, baculovirus-expressed	69 ± 5	80 ± 4		30-40 ng/well	approximately 5 ng of penton base/well		
aPB: Penton base conjugated to Alexa-488						0.034±0.002	neither aPB nor WOW-1 Fab bound detectably
